# Assay results reported in article PMC4113996, “Prediction and characterization of enzymatic activities guided by sequence similarity and genome neighborhood networks” (eLife, 2014).
# B1: BC_0906 (Q81HB0) (Bacillus cereus ATCC 14579) (protein)
# chain: MLVISANEQRNLVNMNEVIEYAALALKEFSAERTITPIRGSLPFANEQNTALIMPSVAEGLEALGVKIVTVVPQNKQIGKKTINGIVMLSDFQAGEPLALLEGSYLTMIRTGALSGVATKYLARHNAKTLCIIGTGEQAKGIAEAIFAVRDIEKVILYNRTEEKAYAFAQYIQEKFGKPAYVYKDPNEAVREADIIVTTTNATTPVFSEILQKGVHVNAVGSFRPSMQELPSHAIAKANKVVVESKEAALDETGDLQVPIKEGLFKANAIHAELGQIISGEKAGRENDEEITIFKSVGLAVVDIIVAKYLYERALEQGVGNKIEF
# B2: Atu4676 (Q7CVK1) (Agrobacterium fabrum str. C58) (protein)
# chain: MSDTTTLTIEALFQRVESIFLRAGLNAVQSGALARVITAGERDACKSHGIYRIEGALRTVKAAKVKPDAIPEVAEDDGTAIVKVNAMGGFANPAFELGLPALAERAKRLGLAALVINDCTHFSALWPEVEGLTSNGLAGLVMCPSYSTVAPTGGTKPLLGTNPFAFGWPRKDTSPYVFDFATSVAARGEIELHRRARKSLPEGWAVDADGNPTTDPEAALAGAMLPFGGHKGSAIGTMIELLAGIMIGDLTSPEVLDYLGTTTLAPFHGELIVAFSPEAFAKGRPGDPFQRAEVLFEAIIGQGARLPSGRRFAARAKSESEGITLTAAEMAGLDRLLEKGLDAVS
# B3: Avi_0518 (B9JQV3) (Allorhizobium ampelinum S4) (protein)
# chain: MRWKRMMQLLDVHCEGEIGKVAIGGVPKIPGDTVADQLHWLNTDPKGRELRHFLVLEPRGAPIGSVNLLLPAKDSRADAAFIILQPDQAHASSGSNSICVTTALLESGMIEMQEPETVVMLETAAGLVKAVAQCRDGHCDSVTLTMVPSFVHELDAQIATESWGEIRFDLAYGGVFYALVDVRQLGLTIEPGNARRLVEAGMLLKGEINQRIQVVHPDIPAISGVAYVMFRDEDPDGAVRTCTTMWPGRVDRSPCGTGNSANLATLHARGRVKPGDSFLSRSIIGSQFTVGLQGLTTVAGRSAVIPTITGRGFTYGIHQVALDAFDPLGGGFVLTDVWGAAAETIKI
# B4: PA1252 (Q9I492) (Pseudomonas aeruginosa PAO1) (protein)
# chain: MIRMTLDEVRELAVRILRRHAFSEAHVQAVADTLVAGERDECASHGIWRLLGCIATLKAGKVSADAEPELHDIAPGLLRVDAHGGFSQCAFRLGLPHLLEKARSQGIAAMAVNRCVHFSALWVEVEALTEAGLVALATTPSHAWVAPAGGRKPIFGTNPIAFGWPRPDGPPFVFDFATSAVARGEIQLHERAGKPIPLGWGVDEQGEPTTDASAALRGAMLTFGGHKGSALAAMVELLAGPLIGDLTSAESLAYDEGSRSSPYGGELLIAIDPRRMLGASAEEHLARAETLFEGIVEQGARLPSQRRFEARERSARDGVTIPEALHRELLALLE
# Columns and labels:
# Assay in all cases: purified protein
# purified protein [1] = substrate: O=C(O)C1=NCCC1; format: biochemical, Bacillus cereus; conditions: 0.16 mM NADPH, 50 mM Tris-HCl pH 7.6, 25°C
# purified protein [2] = substrate: O=C(O)C1=NCCC1; format: biochemical, Agrobacterium fabrum; conditions: 0.16 mM NADPH, 50 mM Tris-HCl pH 7.6, 25°C
# purified protein [3] = substrate: O=C(O)[C@@H]1C[C@@H](O)CN1; conditions: 4HypE reaction (start from t4Hyp as in Figure 1), 50 mM Na-phosphate pH 8.0, 1 mM DTT, 25°C
# purified protein [4] = substrate: O=C(O)C1=NCCC1; format: biochemical, Pseudomonas aeruginosa; conditions: 0.16 mM NADPH, 50 mM Tris-HCl pH 7.6, 25°C
protein,measurement,setting,value
B1,Km,purified protein [1],470 ± 100 µM
same,kcat,purified protein [1],15 ± 1 s⁻¹
B2,Km,purified protein [2],330 ± 40 µM
same,kcat,purified protein [2],32 ± 1 s⁻¹
B3,Km,purified protein [3],5600 ± 500 µM
B4,Km,purified protein [4],410 ± 60 µM
same,kcat,purified protein [4],1.6 ± 0.05 s⁻¹
